Assay results from patent US20050271676A1, “Inducing cellular immune responses to human immunodeficiency virus-1 using peptide and nucleic acid compositions” (Epimmune Inc., priority 1993, published 2005).
No end group written: not given here.

target: T1, HLA-DRB1*0701 (DR7) (Homo sapiens, UniProt P01903+P01911, A100R/A102G/A103Q/D57E/D86V/E43K/F76Y/K127E/L162R/M171V/P40G/Q125H/Q99D/R33Q/R42Y/R54Q/S133A/S66F/T210M/V115G/Y107V/Y59L/Y89S); test: biochemical; format: binding; details: not given
T1 construct: endogenous in cells; host or cells: Pitout

Row | Compound | DR7 binding information
1 | FSPEVIPMF | 0.0023
2 | FYVDGAANR | −0.0014
3 | IDPENPYNT | −0.0005
4 | VLAEAMSQV | 0.0025
5 | IKQEFGIPY | −0.0014
6 | IVTDSQYAL | −0.0014
7 | ILRQRKTDR | −0.0014
8 | VIQGNSDIK | −0.0014
9 | FIHNFKRKG | 0.0048
10 | VAKEIVASC | 0.0015
11 | VVEEKAFSP | 0.0003

target: HLA-A*0203 (Homo sapiens, UniProt P04439, A173T/D140Y/D185E/D98H/E277Q/G131W/G231S/I119V/I121R/I166T/I218V/L180W/L300P/L318F/N151K/N90K/P208A/P217A/Q86G/Q94H/R138H/R169H/T345S); test: purified HLA class I binding assay, A*0203; details: not given

Row | Compound | IC50 [nM]
12 | FLQSRPEPT [25.0037] | 32.3
13 | CSCC[C@H](NC(=O)[C@H](C)NC(=O)[C@@H](N)CCCNC(=N)N)C(=O)N[C@@H](C)C(=O)N[C@@H](CO)C(=O)N[C@@H](CC(=O)O)C(=O)N[C@@H](Cc1ccccc1)C(=O)N[C@@H](CC(N)=O)C(=O)N[C@@H](CC(C)C)C(=O)O [1260.10] | 25000
14 | CC[C@H](C)[C@H](NC(=O)CNC(=O)[C@H](C)NC(=O)[C@H](Cc1c[nH]c2ccccc12)NC(=O)[C@H](Cc1c[nH]c2ccccc12)NC(=O)[C@H](CS)NC(=O)[C@H](C)NC(=O)[C@H](C)NC(=O)[C@@H](N)CCCCN)C(=O)O [Peptide 1261.07] | 83.3

target: HLA-DRB1*1302 (DR6w19) (Homo sapiens, UniProt P01903+P01911, A100E/A169T/K41T/L162R/M171V/P40S/Q125H/Q178H/Q39Y/Q99D/R42S/S66N/T262R/V115G/W38E/Y61H); test: purified HLA class II binding assay, DRB1*1302 (DR6w19); details: Table XXb, HIV DR 3a motif peptides

Row | Compound | DR6w19 binding information
15 | FYVDGAANR | −0.0002
16 | IKQEFGIPY | 0.0123
17 | IVTDSQYAL | 0.0108
18 | VIQGNSDIK | 0.0447

same assay, conditions: Table XXd, HIV DR 3b motif peptides

Row | Compound | DRw619 binding information
19 | ILRQRKTDR | 0.0016

target: T2, HLA-DRB1*0301 (DR3) (Homo sapiens, UniProt P01903+P01911, A100K/A102G/A103R/A169T/F55Y/I96L/K41T/L162R/M171V/P40S/Q125H/Q178H/Q39Y/R42S/S66N/T106N/T262R/W38E/Y61H); test: purified HLA class II binding assay, DRB1*0301 (DR3), pH 4.5; details: not given
T2 construct: endogenous in cells; host or cells: MAT
T2 sequence (P01903 26-254 partner, other chains not shown): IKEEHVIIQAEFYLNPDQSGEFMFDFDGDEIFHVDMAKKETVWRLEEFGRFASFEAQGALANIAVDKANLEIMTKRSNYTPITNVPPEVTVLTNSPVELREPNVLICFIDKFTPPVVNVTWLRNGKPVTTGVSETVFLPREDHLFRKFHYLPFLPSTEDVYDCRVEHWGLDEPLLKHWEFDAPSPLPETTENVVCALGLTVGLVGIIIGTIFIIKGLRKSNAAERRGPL

Row | Compound | IC50 [nM]
20 | WAGIKQEFGIPYNPQ [Peptide 35.0131] | 300
21 | CC[C@H](C)[C@H](NC(=O)[C@@H](NC(=O)CNC(=O)[C@H](CC(C)C)NC(=O)[C@H](C)NC(=O)[C@H](Cc1ccc(O)cc1)NC(=O)[C@H](CCC(N)=O)NC(=O)[C@H](CO)NC(=O)[C@H](CC(=O)O)NC(=O)[C@@H](NC(=O)[C@@H](NC(=O)[C@@H](NC(=O)[C@H](CC(N)=O)NC(=O)[C@@H](NC(=O)[C@@H](N)CCC(=O)O)C(C)C)[C@@H](C)CC)C(C)C)[C@@H](C)O)[C@@H](C)CC)C(=O)O [Peptide 35.0127] | 732
22 | GAVVIQDNSDLKVVP [Peptide 35.0133] | 1000

same assay, conditions: Table XXb, HIV DR 3a motif peptides

Row | Compound | DR3 binding information
23 | LVEICTEMEKECKIS | −0.0017
24 | KCQLKOEAMHGQVDC (KCQLKGEAMHGQVDC; HUMAN IMMUNO… VIRUS) | −0.0017

same assay, conditions: Table XXd, HIV DR 3b motif peptides

Row | Compound | DR3 binding information
25 | CTEMEKBGKISKIGP | 0.0110
26 | DGAANRETKLCKAGY | −0.0017

target: HLA-A*6802 (Homo sapiens, UniProt P04439, A269V/D140Y/D185E/E176V/E277Q/E87N/F33Y/G231S/I121R/I166T/I218V/L180W/L300P/L318F/N151K/P208A/P217A/Q86R/R138H/R169H/S129P/T345S/V36M); test: purified HLA class I binding assay, A*6802; details: not given

Row | Compound | IC50 [nM]
27 | CC[C@H](C)[C@H](NC(=O)[C@H](Cc1ccccc1)NC(=O)[C@H](CC(C)C)NC(=O)[C@H](CC(C)C)NC(=O)[C@H](CCC(N)=O)NC(=O)[C@H](CCC(N)=O)NC(=O)[C@H](CC(C)C)NC(=O)[C@@H](NC(=O)[C@@H](N)CCCNC(=N)N)[C@@H](C)CC)C(=O)O [Peptide 1261.12] | 1820

target: T3, HLA-DRB1*0802 (DR8w2) (Homo sapiens, UniProt P01903+P01911, A100R/A103L/A169T/F76Y/H45Y/I96F/K41T/L162R/M171V/P40S/Q125H/Q178H/Q39Y/Q99D/R218S/R42G/S66Y/V115G/W38E); test: biochemical; format: binding; details: not given
T3 construct: endogenous in cells

Row | Compound | DR8w2 binding information
28 | FYVDGAANR | 0.0035
29 | IKQEFGIPY | −0.0009
30 | IVTDSQYAL | −0.0009
31 | ILRQRKTDR | 0.0270
32 | VIQGNSDIK | −0.0009

target: T4, HLA-B*0702 (Homo sapiens, UniProt P01889); test: purified HLA class I binding assay, B*0702; details: HIV B07 supermotif peptides; binding value for purified HLA-B*0702, unit not given
T4 construct: endogenous in cells; host or cells: GM3107

Row | Compound | B*0702 (binding information)
33 | TPGIRYQYNV | 0.0004
34 | IIPGSQPKTA | 0.0007
35 | LPQGWKGSPA | 0.0120
36 | GPKVKQWPL | 0.0150
37 | TPPLVKLWYQ | 0.0001
38 | HPAGLKKKKS | 0.0001
39 | QPDKSESEIV | 0.0002
40 | SPTRKELQVW | 0.0025
41 | EPFKNLKTGK | 0.0001
42 | IIPDKWTVQPI | 0.0012
43 | NPQSQGVVES | 0.0001
44 | EPIVGAEIP | 0.0001
45 | EPPFLWMGYE | 0.0001
46 | VPLDKDFRKY | 0.0002
47 | NPDIVIYQYM | 0.0005
48 | IIPRISSEVHI | 0.0330
49 | LPGRWKPKM | 0.0038
50 | EPVDPRLEPW | 0.0001
51 | LPEKDSWTV | 0.0001
52 | VPRRKAKII | 0.4800

same assay, conditions: purified HLA-B*0702; binding value without unit

Row | Compound | B*0702 binding (HIV B07 Super Motif Peptides with Binding Information)
53 | APTKAKRRVV | 0.1200
54 | SPRTLNAWYK | 0.0076
55 | KPCVKLTPLC | 0.0004
56 | EPIPIIIYCA | 0.0001
57 | IPMFSALSIEGA | 0.0004
58 | VPVWKEATTT | 0.0022
59 | EPFREYVIIRF | 0.0001
60 | VPIDPNPQEV | 0.0008
61 | GPAATLEEMM | 0.0020
62 | HPVIIAGPI | 0.0012
63 | EPFRDYVDRP | 0.00012
64 | GPGIIKARVLA | 0.0002
65 | IPIIIYCAPA | 0.0130
66 | DPEIVMIISF | 0.0001
67 | GPGIIKARV | 0.0002
68 | IIPVIIAGPIA | 0.0590
69 | IPVGEIYKRW | 0.0002
70 | EPVIIGVYY | 0.0001

target: HLA-A*0206 (Homo sapiens, UniProt P04439, D140Y/D185E/D98H/E176V/E277Q/F33Y/G131W/G231S/I119V/I121R/I166T/I218V/L300P/L318F/N151K/N90K/P208A/P217A/Q86G/Q94H/R138H/R169H/T345S); test: purified HLA class I binding assay, A*0206; details: not given

Row | Compound | IC50 [nM]
71 | CC[C@H](C)[C@H](NC(=O)[C@H](Cc1ccccc1)NC(=O)[C@H](CC(C)C)NC(=O)[C@H](CC(C)C)NC(=O)[C@H](CCC(N)=O)NC(=O)[C@H](CCC(N)=O)NC(=O)[C@H](CC(C)C)NC(=O)[C@@H](NC(=O)[C@@H](N)CCCNC(=N)N)[C@@H](C)CC)C(=O)O [Peptide 1261.12] | 37
72 | CC[C@H](C)[C@H](NC(=O)CNC(=O)[C@H](C)NC(=O)[C@H](Cc1c[nH]c2ccccc12)NC(=O)[C@H](Cc1c[nH]c2ccccc12)NC(=O)[C@H](CS)NC(=O)[C@H](C)NC(=O)[C@H](C)NC(=O)[C@@H](N)CCCCN)C(=O)O [Peptide 1261.07] | 161

target: T5, HLA-A*0301 (Homo sapiens, UniProt P04439); test: purified HLA class I binding assay, A*0301; details: HIV A03 motif peptides, Table XVI; binding value to purified HLA-A*0301, unit not given
T5 construct: endogenous in cells; host or cells: GM3107

Row | Compound | A0301 (binding information)
73 | MLNTVGGIIQA | 0.0005

same assay, conditions: HIV POL-derived A03 motif peptides; binding value for purified HLA-A*0301, unit not given

Row | Compound | A0301 (HIV A03 Motif Peptides with Binding Information)
74 | IILKTAVQMA | 0.0003

target: HLA-A*0201 (Homo sapiens, UniProt P04439, D140Y/D185E/D98H/E176V/E277Q/G131W/G231S/I119V/I121R/I166T/I218V/L300P/L318F/N151K/N90K/P208A/P217A/Q86G/Q94H/R138H/R169H/T345S); test: purified HLA class I binding assay, A*0201; details: not given

Row | Compound | IC50 [nM]
75 | CC[C@H](C)[C@H](NC(=O)[C@H](Cc1ccccc1)NC(=O)[C@H](CC(C)C)NC(=O)[C@H](CC(C)C)NC(=O)[C@H](CCC(N)=O)NC(=O)[C@H](CCC(N)=O)NC(=O)[C@H](CC(C)C)NC(=O)[C@@H](NC(=O)[C@@H](N)CCCNC(=N)N)[C@@H](C)CC)C(=O)O [Peptide 1261.12] | 19.2

same assay, conditions: HIV A02 Super Motif Peptides with Binding Information, Table VIII; unit not given

Row | Compound | A*0201 (binding information)
76 | MVEQMIIEDI | 0.0002
77 | STVQCTIIGI | 0.001
78 | QMIIEDIISL | 0.0023
79 | NVWAIIIACV | 0.0002
80 | CVKLTPLCV | 0.0002
81 | DTEVIINVWA | 0.0001
82 | WATIIACVPT | 0.0002

same assay, conditions: HIV A02 super motif peptides, Table VIII; unit not given

Row | Compound | A*0201 (binding information)
83 | KAYDTEVIINV | 0.0013
84 | IILALQDSGL | 0.0005
85 | EVIINVWATIIA | 0.0001
86 | KIEELRQIIL | 0.0001
87 | GIRYQYNYL | 0.0001
88 | IVTDSQYAL | 0.0024
89 | ILKEPVIIGV | 0.0055
90 | MVEQMIIEDII | 0.0001
91 | CVKLTPLCVT | 0.0001
92 | DTEYIINVWAT | 0.0001
93 | ELQAIIILAL | 0.0001
94 | IILKTAVQMA | 0.0033

same assay, conditions: HIV A02 supermotif peptides, Table VIII; binding value with unit not given

Row | Compound | A*0201 binding
95 | VIQDNSEIKV | 0.0013

same assay, conditions: Table VIII, HIV A02 supermotif peptides; unit not given

Row | Compound | A*0201 (binding information)
96 | KIEELRQIILL | 0.0002
97 | ATWIPCWEFV | 0.0013
98 | IVASCDKCQL | 0.0006
99 | LYSAGIRKYL | 0.0002
100 | IILKTAVQMAV | 0.0005
101 | EILKEPVIIGV | 0.0007

same assay, conditions: binding value for purified HLA-A*0201 as printed in Table VIII; unit not given

Row | Compound | A*0201 (HIV A02 Super Motif Peptides with Binding Information)
102 | LVITFYWGL | 0.0031

same assay, conditions: purified HLA-A*0201; unit not given

Row | Compound | A*0201 binding (HIV A02 Super Motif Peptides with Binding Information)
103 | VLAEAMSQV | 0.1100
104 | MLNTVGGIIQA | 0.0022
